Data published in the supplement of paper PMC5998384.

What was measured:
[1] = system: HeLa Kyoto; assay: melting temperature (median over replicates), in situ; higher = more thermally stable
[2] = system: HeLa Kyoto; assay: solubility in G1/S (NP-40 vs SDS abundance) (log2 ratio); higher = more soluble; details: cell cycle stage: G1/S
[3] = system: HeLa Kyoto; assay: solubility change mitosis vs G1/S (difference of NP-40 vs SDS log2 ratios) (log2 ratio difference); higher = more soluble in mitosis
[4] = system: HeLa Kyoto; assay: thermal stability score vs G1/S (z-score of summed log2 fold changes over temperatures); higher = more thermally stable than in G1/S
[5] = cell cycle stage: early G1 (4.5 h after nocodazole release)
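Throughout, for melting temperature (median over replicates), in situ: HeLa Kyoto cells synchronized by double thymidine or nocodazole block, proteins quantified by TMT10plex mass spectrometry, three independent biological replicates.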
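Throughout, for solubility change mitosis vs G1/S (difference of NP-40 vs SDS log2 ratios): synchronized HeLa Kyoto cells (double thymidine block for G1/S, nocodazole release for mitosis), protein amounts in NP-40 versus SDS lysates quantified by mass spectrometry, three biological replicates.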
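Throughout, for solubility in G1/S (NP-40 vs SDS abundance): HeLa Kyoto cells arrested at G1/S by double thymidine block, proteins quantified by TMT10plex mass spectrometry in mild NP-40 versus SDS extracts, three biological replicates.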
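Throughout, for thermal stability score vs G1/S (z-score of summed log2 fold changes over temperatures): synchronized HeLa Kyoto cells, proteins quantified by TMT10plex mass spectrometry, three biological replicates, mitosis taken 0.5 h after nocodazole release, G1/S directly after double thymidine block.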

WWP2, sequence (chain, as listed by the source): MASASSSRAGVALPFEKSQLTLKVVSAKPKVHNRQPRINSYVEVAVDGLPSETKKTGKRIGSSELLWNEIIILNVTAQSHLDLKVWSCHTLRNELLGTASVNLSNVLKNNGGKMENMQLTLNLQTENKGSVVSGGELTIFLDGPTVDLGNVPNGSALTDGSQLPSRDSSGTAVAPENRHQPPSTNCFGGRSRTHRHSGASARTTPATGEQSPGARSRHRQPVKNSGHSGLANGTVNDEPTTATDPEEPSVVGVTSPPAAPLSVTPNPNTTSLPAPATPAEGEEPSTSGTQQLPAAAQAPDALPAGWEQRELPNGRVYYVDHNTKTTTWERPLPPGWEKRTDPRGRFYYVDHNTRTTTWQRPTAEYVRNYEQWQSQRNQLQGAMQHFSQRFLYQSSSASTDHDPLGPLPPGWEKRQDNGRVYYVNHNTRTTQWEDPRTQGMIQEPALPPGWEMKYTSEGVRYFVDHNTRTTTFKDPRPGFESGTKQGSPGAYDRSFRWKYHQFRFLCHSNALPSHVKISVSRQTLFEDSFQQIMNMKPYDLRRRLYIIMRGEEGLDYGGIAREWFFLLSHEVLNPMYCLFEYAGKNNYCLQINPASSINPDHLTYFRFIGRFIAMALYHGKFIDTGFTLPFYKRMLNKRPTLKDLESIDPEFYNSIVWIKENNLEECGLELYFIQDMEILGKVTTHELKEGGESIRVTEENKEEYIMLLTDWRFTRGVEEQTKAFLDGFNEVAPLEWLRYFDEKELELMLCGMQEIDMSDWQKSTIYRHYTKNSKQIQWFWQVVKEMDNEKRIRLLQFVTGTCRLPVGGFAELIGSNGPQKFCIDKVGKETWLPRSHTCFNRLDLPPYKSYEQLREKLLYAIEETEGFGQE
SOX13, sequence (chain, as listed by the source): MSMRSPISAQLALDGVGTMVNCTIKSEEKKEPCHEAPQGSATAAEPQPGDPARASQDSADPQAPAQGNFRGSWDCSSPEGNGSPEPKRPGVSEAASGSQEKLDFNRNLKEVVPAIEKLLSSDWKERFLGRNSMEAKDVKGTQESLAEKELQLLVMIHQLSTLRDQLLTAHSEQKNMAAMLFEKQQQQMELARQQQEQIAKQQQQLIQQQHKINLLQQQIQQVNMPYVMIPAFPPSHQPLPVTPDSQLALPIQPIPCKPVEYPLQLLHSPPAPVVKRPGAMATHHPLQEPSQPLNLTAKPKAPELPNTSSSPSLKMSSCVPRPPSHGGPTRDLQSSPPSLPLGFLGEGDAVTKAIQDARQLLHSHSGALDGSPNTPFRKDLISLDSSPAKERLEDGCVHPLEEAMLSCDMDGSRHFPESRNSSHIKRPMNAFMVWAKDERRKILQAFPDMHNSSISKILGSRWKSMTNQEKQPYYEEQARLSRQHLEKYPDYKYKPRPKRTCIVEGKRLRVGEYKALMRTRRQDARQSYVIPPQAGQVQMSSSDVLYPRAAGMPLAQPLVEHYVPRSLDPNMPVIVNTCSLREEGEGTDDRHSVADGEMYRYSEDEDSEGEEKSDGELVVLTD
IRF2BPL, sequence (chain, as listed by the source): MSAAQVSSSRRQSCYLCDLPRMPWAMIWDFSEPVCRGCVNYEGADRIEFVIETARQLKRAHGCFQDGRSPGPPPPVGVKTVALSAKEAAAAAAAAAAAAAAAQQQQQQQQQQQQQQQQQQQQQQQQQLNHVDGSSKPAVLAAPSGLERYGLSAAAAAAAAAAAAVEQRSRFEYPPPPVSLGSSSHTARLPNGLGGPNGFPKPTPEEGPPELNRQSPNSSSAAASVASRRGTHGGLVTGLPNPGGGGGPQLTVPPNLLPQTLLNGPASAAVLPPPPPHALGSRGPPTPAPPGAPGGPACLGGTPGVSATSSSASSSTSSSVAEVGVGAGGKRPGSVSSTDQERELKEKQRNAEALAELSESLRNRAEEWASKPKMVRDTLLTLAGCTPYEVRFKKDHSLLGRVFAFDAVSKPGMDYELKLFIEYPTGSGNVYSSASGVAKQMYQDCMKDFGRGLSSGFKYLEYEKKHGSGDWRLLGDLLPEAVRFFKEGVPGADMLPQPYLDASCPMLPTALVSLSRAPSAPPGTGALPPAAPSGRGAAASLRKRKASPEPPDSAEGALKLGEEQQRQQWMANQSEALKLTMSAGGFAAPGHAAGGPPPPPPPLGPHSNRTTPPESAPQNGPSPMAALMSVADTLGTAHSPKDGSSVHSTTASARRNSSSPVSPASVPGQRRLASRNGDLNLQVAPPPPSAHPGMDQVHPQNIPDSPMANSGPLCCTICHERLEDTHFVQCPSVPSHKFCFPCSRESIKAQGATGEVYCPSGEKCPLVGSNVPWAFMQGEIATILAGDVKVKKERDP
HAUS7, sequence (chain, as listed by the source): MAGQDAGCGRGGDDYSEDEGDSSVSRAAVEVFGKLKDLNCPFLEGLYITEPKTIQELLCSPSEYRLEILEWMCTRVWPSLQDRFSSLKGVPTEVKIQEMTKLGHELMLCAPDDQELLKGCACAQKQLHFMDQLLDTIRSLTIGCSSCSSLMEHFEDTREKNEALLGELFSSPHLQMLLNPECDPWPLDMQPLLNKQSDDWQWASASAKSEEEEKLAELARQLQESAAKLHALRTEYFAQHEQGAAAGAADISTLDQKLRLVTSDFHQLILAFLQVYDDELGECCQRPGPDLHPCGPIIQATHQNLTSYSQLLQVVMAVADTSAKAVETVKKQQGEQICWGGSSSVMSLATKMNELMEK

Substance | melting temperature ([1]; cell cycle stage: G1/S) [°C] | melting temperature ([1]; cell cycle stage: mitosis) [°C] | solubility in G1/S (log2) [2] | solubility change mitosis (log2) [3] | thermal stability score [4, 5] | thermal stability score ([4]; cell cycle stage: mitosis)
BAZ2A | 48.3 | 49.6 | -0.382 | 0.217 | – | –
DLG5 | – | 47.5 | -0.385 | 0.289 | – | –
HAUS7 | 50.7 | – | 0.51 | -0.0535 | – | –
IRF2BPL | 50 | 50.9 | 0.519 | -0.131 | – | –
KANSL3 | – | 48.6 | 0.155 | 0.061 | – | –
MAAAAPNAGGSAPETAGSAEAPLQYSLLLQYLVGDKRQPRLLEPGSLGGIPSPAKSEEQKMIEKAMESCAFKAALACVGGFVLGGAFGVFTAGIDTNVGFDPKDPYRTPTAKEVLKDMGQRGMSYAKNFAIVGAMFSCTECLIESYRGTSDWKNSVISGCITGGAIGFRAGLKAGAIGCGGFAAFSAAIDYYLR [TIMM22] | 56 | 56.3 | 0.0827 | -0.0464 | – | –
MAAATIVHDTSEAVELCPAYGLYLKPITKMTISVALPQLKQPGKSISNWEVMERLKGMVQNHQFSTLRISKSTMDFIRFEGEVENKSLVKSFLACLDGKTIKLSGFSDILKVRAAEFKIDFPTRHDWDSFFRDAKDMNETLPGERPDTIHLEGLPCKWFALKESGSEKPSEDVLVKVFEKFGEIRNVDIPMLDPYREEMTGRNFHTFSFGGHLNFEAYVQYREYMGFIQAMSALRGMKLMYKGEDGKAVACNIKVSFDSTKHLSDASIKKRQLERQKLQELEQQREEQKRREKEAEERQRAEERKQKELEELERERKREEKLRKREQKQRDRELRRNQKKLEKLQAEEQKQLQEKIKLEERKLLLAQRNLQSIRLIAELLSRAKAVKLREQEQKEEKLRLQQQEERRRLQEAELRRVEEEKERALGLQRKERELRERLLSILLSKKPDDSHTHDELGVAHADLLQPVLDILQTVSSGCVSATTLHPLGGQPPAGAPKESPAHPEADGAPKSVNGSVAEEAPCKEVQSSCRVVPEDGSPEKRCPGGVLSCIPDNNQQPKGIPACEQNVSRKDTRSEQDKCNREPSKGRGRATGDGLADRHKRERSRARRASSREDGRPRKERRPHKKHAYKDDSPRRRSTSPDHTRSRRSHSKDRHRRERSRERRGSASRKHSRHRRRSERSRSRSPSRHRSTWNR [AKAP17A] | 47 | 49.2 | -1.06 | 0.521 | – | –
MAADVSVTHRPPLSPKSGAEVEAGDAAERRAPEEELPPLDPEEIRKRLEHTERQFRNRRKILIRGLPGDVTNQEVHDLLSDYELKYCFVDKYKGTAFVTLLNGEQAEAAINAFHQSRLRERELSVQLQPTDALLCVANLPPSLTQQQFEELVRPFGSLERCFLVYSERTGQSKGYGFAEYMKKDSAARAKSDLLGKPLGPRTLYVHWTDAGQLTPALLHSRCLCVDRLPPGFNDVDALCRALSAVHSPTFCQLACGQDGQLKGFAVLEYETAEMAEEAQQQADGLSLGGSHLRVSFCAPGPPGRSMLAALIAAQATALNRGKGLLPEPNILQLLNNLGPSASLQLLLNPLLHGSAGGKQGLLGAPPAMPLLNGPALSTALLQLALQTQGQKKPGILGDSPLGALQPGAQPANPLLGELPAGGGLPPELPPRRGKPPPLLPSVLGPAGGDREALGLGPPAAQLTPPPAPVGLRGSGLRGPLSHFYSGSPTSYFTSGLQAGLKQSHLSKAIGSSPLGSGEGLLGLSPGPNGHSHLLKVRAGGGDMQGWEAPAPQRPLTRPALPSVSRPHWAARNAALPTCCPRPSPAQKAAMWASTPRASAATTRTPT [RAVER1] | 46.3 | 48.9 | 0.344 | 0.165 | – | –
MAALGRPFSGLPLSGGSDFLQPPQPAFPGRAFPPGADGAELAPRPGPRAVPSSPAGSAARGRVSVHCKKKHKREEEEDDDCPVRKKRITEAELCAGPNDWILCAHQDVEGHGVNPSVSGLSIPGILDVICEEMDQTTGEPQCEVARRKLQEIEDRIIDEDEEVEADRNVNHLPSLVLSDTMKTGLKREFDEVFTKKMIESMSRPSMELVLWKPLPELLSDKPKPSSNTKNYTGESQAKHVAAGTAFPQRTELFSEPRPTGMSLYNSLETATSTEEEMEL [CCDC117] | 51.6 | 53.2 | 0.515 | 0.183 | – | –
MTTLDHVIATHQSEWVSFNEEPPFPAHSQGGTEEHLPGLSSSPDQSESSSGENHVVDGGSQDHSHSEQDDSSEKMGLISEAASPPGSPEQPPPDLASAISNWVQFEDDTPWASTSPPHQETAETALPLTMPCWTCPSFDSLGRCPLTSESSWTTHSEDTSSPSFGCSYTDLQLINAEEQTSGQASGADSTDNSSSLQEDEEVEMEAISWQASSPAMNGHPAPPVTSARFPSWVTFDDNEVSCPLPPVTSPLKPNTPPSASVIPDVPYNSMGSFKKRDRPKSTLMNFSKVQKLDISSLNRTPSVTEASPWRATNPFLNETLQDVQPSPINPFSAFFEEQERRSQNSSISSTTGKSQRDSLIVIYQDAISFDDSSKTQSHSDAVEKLKQLQIDDPDHFGSATLPDDDPVAWIELDAHPPGSARSQPRDGWPMMLRIPEKKNIMSSRHWGPIFVKLTDTGYLQLYYEQGLEKPFREFKLEICHEISEPRLQNYDENGRIHSLRIDRVTYKEKKKYQPKPAVAHTAEREQVIKLGTTNYDDFLSFIHAVQDRLMDLPVLSMDLSTVGLNYLEEEITVDVRDEFSGIVSKGDNQILQHHVLTRIHILSFLSGLAECRLGLNDILVKGNEIVLRQDIMPTTTTKWIKLHECRFHGCVDEDVFHNSRVILFNPLDACRFELMRFRTVFAEKTLPFTLRTATSVNGAEVEVQSWLRMSTGFSANRDPLTQVPCENVMIRYPVPSEWVKNFRRESVLGEKSLKAKVNRGASFGSTSVSGSEPVMRVTLGTAKYEHAFNSIVWRINRLPDKNSASGHPHCFFCHLELGSDREVPSRFANHVNVEFSMPTTSASKASVRSISVEDKTDVRKWVNYSAHYSYQVALGSIWLMLPTPFVHPTTLPLLFLLAMLTMFAW [STON2] | – | – | -0.622 | 0.444 | 0.129 | -0.103
MTVEQNVLQQSAAQKHQQTFLNQLREITGINDTQILQQALKDSNGNLELAVAFLTAKNAKTPQQEETTYYQTALPGNDRYISVGSQADTNVIDLTGDDKDDLQRAIALSLAESNRAFRETGITDEEQAISRVLEASIAENKACLKRTPTEVWRDSRNPYDRKRQDKAPVGLKNVGNTCWFSAVIQSLFNLLEFRRLVLNYKPPSNAQDLPRNQKEHRNLPFMRELRYLFALLVGTKRKYVDPSRAVEILKDAFKSNDSQQQDVSEFTHKLLDWLEDAFQMKAEEETDEEKPKNPMVELFYGRFLAVGVLEGKKFENTEMFGQYPLQVNGFKDLHECLEAAMIEGEIESLHSENSGKSGQEHWFTELPPVLTFELSRFEFNQALGRPEKIHNKLEFPQVLYLDRYMHRNREITRIKREEIKRLKDYLTVLQQRLERYLSYGSGPKRFPLVDVLQYALEFASSKPVCTSPVDDIDASSPPSGSIPSQTLPSTTEQQGALSSELPSTSPSSVAAISSRSVIHKPFTQSRIPPDLPMHPAPRHITEEELSVLESCLHRWRTEIENDTRDLQESISRIHRTIELMYSDKSMIQVPYRLHAVLVHEGQANAGHYWAYIFDHRESRWMKYNDIAVTKSSWEELVRDSFGGYRNASAYCLMYINDKAQFLIQEEFNKETGQPLVGIETLPPDLRDFVEEDNQRFEKELEEWDAQLAQKALQEKLLASQKLRESETSVTTAQAAGDPEYLEQPSRSDFSKHLKEETIQIITKASHEHEDKSPETVLQSAIKLEYARLVKLAQEDTPPETDYRLHHVVVYFIQNQAPKKIIEKTLLEQFGDRNLSFDERCHNIMKVAQAKLEMIKPEEVNLEEYEEWHQDYRKFRETTMYLIIGLENFQRESYIDSLLFLICAYQNNKELLSKGLYRGHDEELISHYRRECLLKLNEQAAELFESGEDREVNNGLIIMNEFIVPFLPLLLVDEMEEKDILAVEDMRNRWCSYLGQEMEPHLQEKLTDFLPKLLDCSMEIKSFHEPPKLPSYSTHELCERFARIMLSLSRTPADGR [USP25] | – | – | 0.123 | -0.00837 | -0.404 | 0.0462
MVQKYQSPVRVYKYPFELIMAAYERRFPTCPLIPMFVGSDTVNEFKSEDGAIHVIERRCKLDVDAPRLLKKIAGVDYVYFVQKNSLNSRERTLHIEAYNETFSNRVIINEHCCYTVHPENEDWTCFEQSASLDIKSFFGFESTVEKIAMKQYTSNIKKGKEIIEYYLRQLEEEGITFVPRWSPPSITTSSETSSSSSKKQAASMAVVIPEAALKEGLSGDALSSPSAPEPVVGTPDDKLDADYIKRYLGDLTPLQESCLIRLRQWLQETHKGKIPKDEHILRFLRARDFNIDKAREIMCQSLTWRKQHQVDYILETWTPPQVLQDYYAGGWHHHDKDGRPLYVLRLGQMDTKGLVRALGEEALLRYVLSINEEGLRRCEENTKVFGRPISSWTCLVDLEGLNMRHLWRPGVKALLRIIEVVEANYPETLGRLLILRAPRVFPVLWTLVSPFIDDNTRRKFLIYAGNDYQGPGGLLDYIDKEIIPDFLSGECMCEVPEGGLVPKSLYRTAEELENEDLKLWTETIYQSASVFKGAPHEILIQIVDASSVITWDFDVCKGDIVFNIYHSKRSPQPPKKDSLGAHSITSPGGNNVQLIDKVWQLGRDYSMVESPLICKEGESVQGSHVTRWPGFYILQWKFHSMPACAASSLPRVDDVLASLQVSSHKCKVMYYTEVIGSEDFRGSMTSLESSHSGFSQLSAATTSSSQSHSSSMISR [SEC14L1] | – | – | -0.0916 | -0.126 | -0.528 | 0.106
MWKRSEQMKIKSGKCNMAAAMETEQLGVEIFETADCEENIESQDRPKLEPFYVERYSWSQLKKLLADTRKYHGYMMAKAPHDFMFVKRNDPDGPHSDRIYYLAMSGENRENTLFYSEIPKTINRAAVLMLSWKPLLDLFQATLDYGMYSREEELLRERKRIGTVGIASYDYHQGSGTFLFQAGSGIYHVKDGGPQGFTQQPLRPNLVETSCPNIRMDPKLCPADPDWIAFIHSNDIWISNIVTREERRLTYVHNELANMEEDARSAGVATFVLQEEFDRYSGYWWCPKAETTPSGGKILRILYEENDESEVEIIHVTSPMLETRRADSFRYPKTGTANPKVTFKMSEIMIDAEGRIIDVIDKELIQPFEILFEGVEYIARAGWTPEGKYAWSILLDRSQTRLQIVLISPELFIPVEDDVMERQRLIESVPDSVTPLIIYEETTDIWINIHDIFHVFPQSHEEEIEFIFASECKTGFRHLYKITSILKESKYKRSSGGLPAPSDFKCPIKEEIAITSGEWEVLGRHGSNIQVDEVRRLVYFEGTKDSPLEHHLYVVSYVNPGEVTRLTDRGYSHSCCISQHCDFFISKYSNQKNPHCVSLYKLSSPEDDPTCKTKEFWATILDSAGPLPDYTPPEIFSFESTTGFTLYGMLYKPHDLQPGKKYPTVLFIYGGPQVQLVNNRFKGVKYFRLNTLASLGYVVVVIDNRGSCHRGLKFEGAFKYKMGQIEIDDQVEGLQYLASRYDFIDLDRVGIHGWSYGGYLSLMALMQRSDIFRVAIAGAPVTLWIFYDTGYTERYMGHPDQNEQGYYLGSVAMQAEKFPSEPNRLLLLHGFLDENVHFAHTSILLSFLVRAGKPYDLQIYPQERHSIRVPESGEHYELHLLHYLQENLGSRIAALKVI [DPP8] | – | – | -0.288 | -0.0129 | -0.204 | 0.0056
SOX13 | – | – | 0.191 | 0.0877 | 0.734 | 0.151
TNS1 | – | – | -0.0779 | 0.117 | 0.323 | 1.79
WWP2 | – | – | -0.136 | -0.0544 | 0.284 | -1.96
